These results are taken from US20220306759A1 (CYTOMX THERAPEUTICS, published 2022).

Read-outs that look alike come from different tables or passages of the source.

In test [1] the target is T1, human CD71 (transferrin receptor protein 1, TfR1) on human cell lines (human, UniProt P02786 1-760).
T1 construct: whole, on cells; also called huCD71
The test can be described thus: FACS on BxPC3 cells.

Test [2] concerns the target T2, recombinant human CD71 protein (human, UniProt P02786 89-760).
T2 construct: also called recombinant CD71
Description: ELISA; Kd against CD71 21.12. As for the experimental part: (§1) The amount of bound antibody was detected by incubation and detection by goat anti-human antibody conjugated to horseradish peroxidase and Ultra TMB (Thermo Fisher Scientific) detection.
Background: An ELISA detects its analyte on a solid surface through an enzyme-linked reagent.

In test [3] the target is T2, recombinant human CD71 protein. Description: ELISA, 1 µg/mL recombinant human CD71, uncleaved. The protocol: as §1
Test [4] shares this target. Description: ELISA; Kd against CD71 21.12. As for the experimental part: as §1
The source holds these as a separate data set.

In test [5] the target is T1, human CD71 (transferrin receptor …). The test can be described thus: FACS on HCC1806 cells. As for the experimental part: (§2) In this study, the binding of the antibodies of the present disclosure to the indicated cell lines were performed using a standard FACS labelling method.
Test [6] shares this target. Description: FACS on H292 cells, uncleaved. The protocol: In this study, the binding of the antibodies of the present disclosure to the indicated cell lines were performed using a standard FACS labelling method. […] These activatable antibodies include the light chain of the correspondingly named sequence listed above in Table C. The cells were labeled with the indicated test article at the indicated concentrations and subsequently detected with an Alexa Fluor 647 labeled goat anti-human IgG secondary antibody.

Test [7] shares this target. Description: FACS on H292 cells. The protocol:
as §2

Test [8] concerns the target T2, recombinant human CD71 protein. Description: ELISA, 1 µg/mL CD71, uncleaved. The protocol:
as §1

Test [9] shares this target. The test can be described thus: ELISA, 1 µg/mL CD71 on nickel plates, not activated. The protocol: as §1
Another test has as its target T3, Human CD71-His6 (human, UniProt P02786 89-760, limits assumed).
T3 construct: immobilized on Ni-NTA substrate (Octet); also called recombinant human CD71 protein with hexa-histidine tag
Description: BLI (Octet), CD71-His6 on Ni-NTA, Fab in solution. From the text: (§3) The recombinant CD71 proteins included a hexa-histidine (His6) peptide tag, by which the protein was immobilized to a Ni-NTA (nitrilotriacetic acid)-containing substrate.
A general note: In BLI a coated tip is dipped into the sample, and binding shifts an interference pattern.

For another test, the target named is T4, Cyno CD71-His6 (cynomolgus monkey, UniProt H9EXL1 89-760 (rhesus entry)).
T4 construct: immobilized on Ni-NTA substrate (Octet); also called recombinant cynomolgus CD71 protein with hexa-histidine tag
T4 sequence (chain, as listed by the source): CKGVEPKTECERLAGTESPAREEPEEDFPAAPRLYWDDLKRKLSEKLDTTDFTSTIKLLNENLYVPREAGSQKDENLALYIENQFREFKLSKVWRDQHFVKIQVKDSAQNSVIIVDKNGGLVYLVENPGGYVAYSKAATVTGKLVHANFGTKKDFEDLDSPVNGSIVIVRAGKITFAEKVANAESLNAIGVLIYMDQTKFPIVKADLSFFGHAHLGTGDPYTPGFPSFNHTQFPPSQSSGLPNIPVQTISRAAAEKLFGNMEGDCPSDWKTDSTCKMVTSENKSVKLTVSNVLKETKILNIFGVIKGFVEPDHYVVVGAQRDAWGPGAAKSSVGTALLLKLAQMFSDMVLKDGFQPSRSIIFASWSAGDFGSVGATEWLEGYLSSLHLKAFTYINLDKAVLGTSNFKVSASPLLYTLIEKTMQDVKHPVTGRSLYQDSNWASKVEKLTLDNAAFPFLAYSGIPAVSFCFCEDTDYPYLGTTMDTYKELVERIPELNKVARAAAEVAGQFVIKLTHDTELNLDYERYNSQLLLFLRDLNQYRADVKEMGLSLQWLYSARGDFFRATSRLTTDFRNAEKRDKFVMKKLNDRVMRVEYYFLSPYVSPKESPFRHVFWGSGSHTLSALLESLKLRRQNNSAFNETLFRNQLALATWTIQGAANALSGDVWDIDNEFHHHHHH
Description: BLI (Octet), CD71-His6 on Ni-NTA, Fab in solution.
Source text: as §3

The target of test [10] is T1, human CD71 (transferrin receptor …). The test can be described thus: FACS on MDA MB 231 cells; Kd against CD71-Ab. As for the experimental part:
as §2

For test [11] the target is unchanged. The test can be described thus: FACS on BxPC3 cells, uncleaved. As for the experimental part:
as §2

Test [12] shares this target. Description: FACS on BxPC3 cells; Kd against CD71-Ab. As for the experimental part:
as §2

Test [13] shares this target. The test can be described thus: FACS on FaDu cells, uncleaved. As for the experimental part:
as §2

Test [14] has the same target. Description: FACS on FaDu cells; Kd against CD71-Ab. The protocol:
as §2

For test [15] the target is unchanged. Description: FACS on HT29 cells, uncleaved. The protocol:
as §2

Test [16] shares this target. The test can be described thus: FACS on HT29 cells; Kd against CD71-Ab. The protocol: as §2
For test [17] the target is unchanged. The test can be described thus: FACS on MDA MB 231 cells, uncleaved. The protocol:
as §2

Test [18] shares this target. The test can be described thus: FACS on MDA MB 231 cells. As for the experimental part:
as §2

Test [19] has the same target. The test can be described thus: FACS on DMS 79 cells. As for the experimental part:
(§4) In this study, the binding of the antibodies and ADCs of the present disclosure to the indicated cell lines were performed using a standard FACS labelling method.

Test [20] shares this target. Description: FACS on DMS 153 cells. The protocol:
as §4

T1 sequence (P02786 whole entry): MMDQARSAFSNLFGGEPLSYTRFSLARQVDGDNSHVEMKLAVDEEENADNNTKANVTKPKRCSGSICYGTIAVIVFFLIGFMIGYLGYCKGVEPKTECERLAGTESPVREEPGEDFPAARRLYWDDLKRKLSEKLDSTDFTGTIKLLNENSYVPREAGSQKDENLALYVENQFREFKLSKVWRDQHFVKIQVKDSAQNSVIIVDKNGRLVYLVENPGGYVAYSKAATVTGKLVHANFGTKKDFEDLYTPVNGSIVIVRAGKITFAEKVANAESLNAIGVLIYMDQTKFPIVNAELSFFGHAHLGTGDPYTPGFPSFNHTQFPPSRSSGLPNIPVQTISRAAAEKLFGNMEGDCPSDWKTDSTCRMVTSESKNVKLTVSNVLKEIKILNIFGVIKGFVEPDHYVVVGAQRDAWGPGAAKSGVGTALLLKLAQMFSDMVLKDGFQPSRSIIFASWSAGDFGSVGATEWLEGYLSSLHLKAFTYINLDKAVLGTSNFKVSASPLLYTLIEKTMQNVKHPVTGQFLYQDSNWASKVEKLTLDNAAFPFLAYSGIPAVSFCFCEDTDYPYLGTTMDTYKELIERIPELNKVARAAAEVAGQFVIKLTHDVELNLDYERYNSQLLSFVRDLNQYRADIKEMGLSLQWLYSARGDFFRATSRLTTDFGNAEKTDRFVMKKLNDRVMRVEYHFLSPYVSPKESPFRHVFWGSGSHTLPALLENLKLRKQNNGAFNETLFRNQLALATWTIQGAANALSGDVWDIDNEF
T2 sequence (P02786 89-760 limits assumed): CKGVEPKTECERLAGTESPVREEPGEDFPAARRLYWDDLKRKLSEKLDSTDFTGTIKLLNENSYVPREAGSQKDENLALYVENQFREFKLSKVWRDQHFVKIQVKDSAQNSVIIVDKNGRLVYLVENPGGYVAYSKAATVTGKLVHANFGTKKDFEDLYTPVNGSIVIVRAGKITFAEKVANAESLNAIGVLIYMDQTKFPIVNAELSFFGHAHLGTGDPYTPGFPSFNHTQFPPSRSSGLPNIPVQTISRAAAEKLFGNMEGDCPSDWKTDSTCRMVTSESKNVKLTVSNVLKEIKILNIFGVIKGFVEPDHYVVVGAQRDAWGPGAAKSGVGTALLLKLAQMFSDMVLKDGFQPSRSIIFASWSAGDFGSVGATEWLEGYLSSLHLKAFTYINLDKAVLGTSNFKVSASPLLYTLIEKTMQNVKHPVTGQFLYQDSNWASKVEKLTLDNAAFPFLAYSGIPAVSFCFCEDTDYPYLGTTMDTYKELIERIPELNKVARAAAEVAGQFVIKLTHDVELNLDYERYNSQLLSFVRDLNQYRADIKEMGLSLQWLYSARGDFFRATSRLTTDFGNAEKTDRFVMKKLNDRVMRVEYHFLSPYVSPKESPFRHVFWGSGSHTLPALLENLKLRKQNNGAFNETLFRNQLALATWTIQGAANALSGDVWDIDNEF
T3 sequence (P02786 other isoform, or with tags, fused parts or gaps limits assumed): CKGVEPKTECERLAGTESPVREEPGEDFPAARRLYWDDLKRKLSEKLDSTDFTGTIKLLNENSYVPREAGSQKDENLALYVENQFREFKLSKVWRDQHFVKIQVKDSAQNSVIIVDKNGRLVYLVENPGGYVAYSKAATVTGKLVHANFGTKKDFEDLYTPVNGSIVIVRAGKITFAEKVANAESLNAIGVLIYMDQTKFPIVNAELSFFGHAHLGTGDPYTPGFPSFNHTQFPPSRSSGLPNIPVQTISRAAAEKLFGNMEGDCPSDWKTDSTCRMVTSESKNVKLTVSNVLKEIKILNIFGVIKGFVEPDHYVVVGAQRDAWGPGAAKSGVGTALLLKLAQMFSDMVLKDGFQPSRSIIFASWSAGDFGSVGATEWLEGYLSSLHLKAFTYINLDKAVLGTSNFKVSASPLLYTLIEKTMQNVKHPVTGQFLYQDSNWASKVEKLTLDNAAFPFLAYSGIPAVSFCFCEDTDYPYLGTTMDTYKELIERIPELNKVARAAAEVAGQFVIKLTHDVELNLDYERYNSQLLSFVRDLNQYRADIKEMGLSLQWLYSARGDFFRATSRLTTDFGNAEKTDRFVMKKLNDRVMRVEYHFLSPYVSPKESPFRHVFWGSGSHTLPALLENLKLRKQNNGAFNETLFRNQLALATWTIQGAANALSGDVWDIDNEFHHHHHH

B1: anti-CD71 M21 monoclonal antibody (antibody, V domains shown)
VH: EVQLQESGTVLARPGASVKMSCKASGYTFTSYWMHWVKQRPGQGLEWIGAIYPGNSETGYNQNFKGKAKLTAVTSASTAYMDLSSLTNEDSAVYYCTRENWDPGFAFWGQGTLITVSA
VL: DIVMTQTPAIMSASPGEKVTITCSASSSVYYMYWFQQKPGTSPKLWIYSTSNLASGVPVRFSGSGSGTSYSLTISRMEAEDAATYYCQQRRNYPYTFGGGTKLEIKR
notes: mouse monoclonal antibody from hybridoma; also called muM21; Mab21
For B1, the equilibrium dissociation constant (Kd) (commonly the concentration at which binding is half-saturated) in [1] was about 3 nM.

B2: anti-human CD71 TF02.13-2001 activatable antibody (antibody, human IgG1, kappa)
heavy: not shown
light: QGQSGQGNLCTEHSAALDCRSYGGGSSGGSISSGLLSGRSDNHGGGSDIQMTQSPSSLSASVGDRVTITCSASSSVYYMYWFQQKPGKAPKLWIYSTSNLASGVPSRFSGSGSGTDYTLTISSMQPEDFATYYCQQRRNYPYTFGQGTKLEIKRTVAAPSVFIFPPSDEQLKSGTASVVCLLNNFYPREAKVQWKVDNALQSGNSQESVTEQDSKDSTYSLSSTLTLSKADYEKHKVYACEVTHQGLSSPVTKSFNRGEC
On to B2, for which the “ME (masking efficiency)” value in test [2] is 42 fold; in test [4], 65 fold. The Kd in test [3] is 2.53 nM; in test [5], about 200 nM; in [6], 27.5 nM; in test [7] it was 92.3 nM; in test [8], 9.14 nM; in [9], 13 nM. For the same molecule, the “Bmax (MFI)” value in test [7] is 2210 MFI.

B3: Ab21.10 LcB:HcA (antibody, V domains shown)
VH: QVQLVQSGAEVKKPGASVKVSCKASGYTFTSYWMHWVRQAPGQGLEWMGAIYPGNSETGYAQKFQGRVTMTRDTSTSTVYMELSSLRSEDTAVYYCARENWDPGFAFWGQGTLVTVSS
VL: DIQMTQSPSSLSASVGDRVTITCSASSSVYYMYWFQQKPGKAPKLWIYSTSNLASGVPSRFSGSGSGTDYTLTISSMQPEDFATYYCQQRRNYPYTFGQGTKLEIK
notes: humanized; detected with anti-human IgG; also called huCD71 Ab21.10
In the case of B3, the binding result in test [1] is on record as “binds”.

B4: anti-CD71 Fab fragment (papain digest of anti-CD71 21.12) (Fab, V domains shown)
VH: QVQLVQSGAEVKKPGASVKMSCKASGYTFTSYWMHWVRQAPGQGLEWIGAIYPGNSETGYAQKFQGRATLTADTSTSTAYMELSSLRSEDTAVYYCTRENWDPGFAFWGQGTLITVSS
VL: DIQMTQSPSSLSASVGDRVTITCSASSSVYYMYWFQQKPGKAPKLWIYSTSNLASGVPSRFSGSGSGTDYTLTISSMQPEDFATYYCQQRRNYPYTFGQGTKLEIKR
Consider B4, for which, in the test with Human CD71-His6, the Kd was 14 nM; the off-rate (koff) (commonly a measure of how fast the partners let go of each other) turned out to be 0.00398 s⁻¹; the kon (in general, the rate constant with which the complex forms) was determined as 664000 M⁻¹ s⁻¹. Also, in the test with Cyno CD71-His6, binding was put at a Kd of 6 nM, the koff stood at 0.00559 s⁻¹ and the kon came to 390000 M⁻¹ s⁻¹.

B5: anti-human CD71 TF02.13-3001 activatable antibody (antibody, human IgG1, kappa)
heavy: not shown
light: QGQSGQGNLCTEHSAALDCRSYGGGSSGGSAVGLLAPPGGLSGRSDNHGGSDIQMTQSPSSLSASVGDRVTITCSASSSVYYMYWFQQKPGKAPKLWIYSTSNLASGVPSRFSGSGSGTDYTLTISSMQPEDFATYYCQQRRNYPYTFGQGTKLEIKRTVAAPSVFIFPPSDEQLKSGTASVVCLLNNFYPREAKVQWKVDNALQSGNSQESVTEQDSKDSTYSLSSTLTLSKADYEKHKVYACEVTHQGLSSPVTKSFNRGEC
notes: also called CD71-ActAb 1
Regarding B5, the “ME (masking efficiency)” value came out at 46 fold in [10], 43 fold in test [12], 38 fold in test [14] and 45 fold in test [16]. In addition, the dissociation constant Kd was 35.2 nM in test [11]; 0.813 nM in [3]; 14.7 nM in test [13]; about 200 nM in [5]; 10.2 nM in [6]; 23 nM in [15]. Also, the values for the Kd in [7], in [17] and in test [18] were 52.1 nM, 38.8 nM and 30.6 nM, respectively. The “Bmax (MFI)” value in [7] turned out to be 1820 MFI.

B6: anti-human CD71 TF02.18-2001 activatable antibody (antibody, human IgG1, kappa)
heavy: not shown
light: QGQSGQGCTEHSFALDCGGGSSGGSISSGLLSGRSDNHGGGSDIQMTQSPSSLSASVGDRVTITCSASSSVYYMYWFQQKPGKAPKLWIYSTSNLASGVPSRFSGSGSGTDYTLTISSMQPEDFATYYCQQRRNYPYTFGQGTKLEIKRTVAAPSVFIFPPSDEQLKSGTASVVCLLNNFYPREAKVQWKVDNALQSGNSQESVTEQDSKDSTYSLSSTLTLSKADYEKHKVYACEVTHQGLSSPVTKSFNRGEC
notes: also called CD71-ActAb 2
For B6, the “ME (masking efficiency)” value in [10] was 38 fold; in [2], 9 fold; in test [12], 43 fold; in test [4] it was 11 fold; in [14], 39 fold; in test [16] it was 39 fold. The Kd turned out to be 36.4 nM in test [11]; 15.4 nM in test [13]; 19.7 nM in [15]; 1.59 nM in test [8]; 32 nM in [17]; 3 nM in [9].

B7: anti-human CD71 TF01-2001 activatable antibody (antibody, human IgG1, kappa)
heavy: not shown
light: QGQSGQGQFCPWSYYLIGDCDIGGGSSGGSISSGLLSGRSDNHGGGSDIQMTQSPSSLSASVGDRVTITCSASSSVYYMYWFQQKPGKAPKLWIYSTSNLASGVPSRFSGSGSGTDYTLTISSMQPEDFATYYCQQRRNYPYTFGQGTKLEIKRTVAAPSVFIFPPSDEQLKSGTASVVCLLNNFYPREAKVQWKVDNALQSGNSQESVTEQDSKDSTYSLSSTLTLSKADYEKHKVYACEVTHQGLSSPVTKSFNRGEC
notes: also called huCD71 TF01-2001
Consider B7, for which the “ME (masking efficiency)” value in test [4] is 500 fold. Also, the Kd in [8] was found to be 70 nM.

B8: anti-human CD71 Ab21.12-Duoc (antibody, human IgG1, kappa)
heavy: not shown
light: DIQMTQSPSSLSASVGDRVTITCSASSSVYYMYWFQQKPGKAPKLWIYSTSNLASGVPSRFSGSGSGTDYTLTISSMQPEDFATYYCQQRRNYPYTFGQGTKLEIKRTVAAPSVFIFPPSDEQLKSGTASVVCLLNNFYPREAKVQWKVDNALQSGNSQESVTEQDSKDSTYSLSSTLTLSKADYEKHKVYACEVTHQGLSSPVTKSFNRGEC
modifications: duocarmycin conjugated to the antibody; chain and residues not stated
notes: antibody drug conjugate of Ab21.12; also called anti-human CD71 antibody conjugated to duocarmycin
As to B8, the Kd in test [19] came to 1.09 nM; in test [20], 2.3 nM.
